Data published in patent US20240269235A1 (Gilead, published 2024).

Columns and labels:
[1] = biological target: T1, human IL-2Rα on Treg cells (CD3+, CD4+, CD25hi, FoxP3+) of human PBMC (human, UniProt P01589 22-272); test: cell-based or functional assay
T1 sequence (looked up): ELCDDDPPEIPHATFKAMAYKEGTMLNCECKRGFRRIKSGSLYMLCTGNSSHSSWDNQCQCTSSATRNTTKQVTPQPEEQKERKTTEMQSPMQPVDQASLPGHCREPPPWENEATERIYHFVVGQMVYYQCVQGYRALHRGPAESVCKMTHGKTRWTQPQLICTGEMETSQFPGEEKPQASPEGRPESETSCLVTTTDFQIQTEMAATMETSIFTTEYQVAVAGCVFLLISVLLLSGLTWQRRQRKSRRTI

[2] = biological target: T2, trimeric murine IL-2 receptor (IL-2Rα, IL-2Rβ, and IL-2Rγ) on CTLL-2 cells (murine, UniProt P01590 22-268; P16297 27-539; P34902 23-369); test: cell-based or functional assay
T2 sequence (looked up) 1: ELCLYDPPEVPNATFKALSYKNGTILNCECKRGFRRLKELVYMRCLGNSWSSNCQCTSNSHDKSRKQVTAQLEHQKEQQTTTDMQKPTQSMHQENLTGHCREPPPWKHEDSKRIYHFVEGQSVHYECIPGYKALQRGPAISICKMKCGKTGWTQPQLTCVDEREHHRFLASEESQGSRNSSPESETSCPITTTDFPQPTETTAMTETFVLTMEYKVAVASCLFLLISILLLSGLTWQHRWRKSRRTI
T2 sequence (looked up) 2: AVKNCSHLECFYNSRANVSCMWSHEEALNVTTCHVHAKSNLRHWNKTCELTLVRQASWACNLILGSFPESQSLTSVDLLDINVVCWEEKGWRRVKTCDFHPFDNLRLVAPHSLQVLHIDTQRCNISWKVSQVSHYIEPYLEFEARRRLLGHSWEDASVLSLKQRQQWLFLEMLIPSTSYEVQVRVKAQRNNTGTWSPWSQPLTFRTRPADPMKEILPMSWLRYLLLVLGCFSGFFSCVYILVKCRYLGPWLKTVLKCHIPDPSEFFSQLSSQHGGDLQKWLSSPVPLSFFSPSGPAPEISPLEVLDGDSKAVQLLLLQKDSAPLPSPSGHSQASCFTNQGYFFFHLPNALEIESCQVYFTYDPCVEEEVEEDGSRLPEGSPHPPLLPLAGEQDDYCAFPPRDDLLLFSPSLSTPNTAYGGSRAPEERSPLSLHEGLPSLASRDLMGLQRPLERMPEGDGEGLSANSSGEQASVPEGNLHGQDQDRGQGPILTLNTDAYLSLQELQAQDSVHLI
T2 sequence (looked up) 3: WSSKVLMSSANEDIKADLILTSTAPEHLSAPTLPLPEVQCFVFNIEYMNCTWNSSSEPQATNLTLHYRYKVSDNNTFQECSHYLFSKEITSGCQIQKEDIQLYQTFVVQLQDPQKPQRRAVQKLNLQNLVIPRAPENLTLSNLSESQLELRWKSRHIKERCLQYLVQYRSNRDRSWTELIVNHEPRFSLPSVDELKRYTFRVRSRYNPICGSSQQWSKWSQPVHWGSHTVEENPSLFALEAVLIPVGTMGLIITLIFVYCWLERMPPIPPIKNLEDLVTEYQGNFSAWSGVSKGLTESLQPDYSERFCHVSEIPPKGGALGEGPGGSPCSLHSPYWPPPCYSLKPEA

[3] = biological target: T3, IL-2Rβγ heterodimer, custom biotinylated Fc fusion protein (human IL-2Rβ 27-240-Fc-FLAG / human IL-2Rγ … (human, site-specific biotinylation at the AviTag)); test: SPR (Biacore), CM4 chip, biotinylated receptor on neutravidin
T3 construct: Extracellular regions fused to IgG1 knob-in-hole Fc subunits with tags; also called IL-2 receptor βγ heterodimer; Fc-IL-2Rβγ

[4] = biological target: T4, IL-2Rαβγ on KHYG-1 cells (human NK leukemia cell line that expresses IL-2Rα, β, and γ) (human, UniProt P01589 22-272; P14784 27-551; P31785 23-369); test: cell-based or functional assay
T4 sequence (looked up) 1: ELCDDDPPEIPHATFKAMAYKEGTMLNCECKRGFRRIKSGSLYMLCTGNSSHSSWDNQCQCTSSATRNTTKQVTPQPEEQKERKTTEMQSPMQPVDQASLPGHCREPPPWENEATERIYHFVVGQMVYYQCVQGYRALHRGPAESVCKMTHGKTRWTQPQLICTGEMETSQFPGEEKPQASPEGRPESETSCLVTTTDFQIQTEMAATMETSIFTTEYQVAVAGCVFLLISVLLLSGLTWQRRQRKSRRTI
T4 sequence (looked up) 2: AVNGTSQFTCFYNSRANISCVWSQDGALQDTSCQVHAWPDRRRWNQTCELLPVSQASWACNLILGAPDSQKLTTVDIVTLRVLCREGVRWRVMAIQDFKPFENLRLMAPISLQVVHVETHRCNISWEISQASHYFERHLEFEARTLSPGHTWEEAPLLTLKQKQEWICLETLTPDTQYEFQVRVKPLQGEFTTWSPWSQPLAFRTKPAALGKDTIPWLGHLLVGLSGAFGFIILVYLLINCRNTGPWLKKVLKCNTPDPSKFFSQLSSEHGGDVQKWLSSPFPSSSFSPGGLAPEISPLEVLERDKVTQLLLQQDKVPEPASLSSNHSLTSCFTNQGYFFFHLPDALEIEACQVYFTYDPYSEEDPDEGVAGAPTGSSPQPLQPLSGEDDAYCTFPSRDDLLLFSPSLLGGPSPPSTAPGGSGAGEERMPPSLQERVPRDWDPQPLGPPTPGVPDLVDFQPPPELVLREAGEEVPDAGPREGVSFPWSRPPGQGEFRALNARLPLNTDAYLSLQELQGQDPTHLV
T4 sequence (looked up) 3: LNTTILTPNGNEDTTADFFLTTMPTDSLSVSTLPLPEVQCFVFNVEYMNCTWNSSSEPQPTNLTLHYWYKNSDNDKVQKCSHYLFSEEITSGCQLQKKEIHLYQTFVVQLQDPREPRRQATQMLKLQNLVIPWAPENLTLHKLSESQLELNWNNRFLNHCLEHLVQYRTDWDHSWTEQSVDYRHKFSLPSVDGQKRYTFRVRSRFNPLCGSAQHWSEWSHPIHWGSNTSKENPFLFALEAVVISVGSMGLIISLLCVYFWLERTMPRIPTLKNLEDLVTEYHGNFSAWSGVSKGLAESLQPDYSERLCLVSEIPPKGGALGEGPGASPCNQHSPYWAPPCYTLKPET

Treg EC50, STAT5 activation (PBMC STAT5 assay) [1]: < 0.001 nM
STAT5 activation of CTLL-2 cells, EC50 [2]: 0.003 nM
Kd [3]: 0.056 nM
Proliferation of KHYG-1 NK cells, EC50 [4]: 0.016 nM
B1: Fc-IL-2 heterodimer 117.46 (hIL-2v_Δ1-5_C125S), native IL-2Rα binding interface (Fc fusion)
chain 1: ESKYGPPCPPCPAPEAAGGPSVFLFPPKPKDTLMISRTPEVTCVVVDVSQEDPEVQFNWYVDGVEVHNAKTKPREEQFNSTYRVVSVLTVLHQDWLNGKEYKCKVSNKGLPSSIEKTISKAKGQPREPQVYTLPPSQEEMTKNQVSLWCLVKGFYPSDIAVEWESNGQPENNYKTTPPVLDSDGSFFLYSRLTVDKSRWQEGNVFSCSVMHEALHNHYTQKSLSLSLGGGGGSGGGGSGGGGSGGGGSSTKKTQLQLEHLLLDLQMILNGINNYKNPKLTRMLTFKFYMPKKATELKHLQCLEEELKPLEEVLNLAQSKNFHLRPRDLISNINVIVLELKGSETTFMCEYADETATIVEFLNRWITFSQSIISTLT
chain 2: ESKYGPPCPPCPAPEAAGGPSVFLFPPKPKDTLMISRTPEVTCVVVDVSQEDPEVQFNWYVDGVEVHNAKTKPREEQFNSTYRVVSVLTVLHQDWLNGKEYKCKVSNKGLPSSIEKTISKAKGQPREPQVYTLPPSQEEMTKNQVSLSCAVKGFYPSDIAVEWESNGQPENNYKTTPPVLDSDGSFFLVSRLTVDKSRWQEGNVFSCSVMHEALHNRFTQKSLSLSLGK
notes: hIgG4 knob-in-hole Fc heterodimer
